In the experiment the target is T1, human recombinant netrin‐1, on AHC biosensors (human, UniProt O95631 25-604).
T1 construct: netrin-1, human, recombinant; AHC sensors capture human IgG Fc, so an Fc-tagged netrin-1 is surmised; Capture through a human antibody cannot be excluded; It may otherwise be the same protein as m1; also called h‐netrin‐1
The experiment is described as follows: BLI; netrin-1 on AHC biosensors; analytes at 3.12-100 nM; 30°C, 1,000 rpm; PBS, 0.02% Tween-20, 0.1% BSA; 5 min association, 5 min dissociation. The note with it: both partners purified.

B1: recombinant human lumican (natural protein, UniProt P51884 19-338, looked up)
chain: QYYDYDFPLSIYGQSSPNCAPECNCPESYPSAMYCDELKLKSVPMVPPGIKYLYLRNNQIDHIDEKAFENVTDLQWLILDHNLLENSKIKGRVFSKLKQLKKLHINHNNLTESVGPLPKSLEDLQLTHNKITKLGSFEGLVNLTFIHLQHNRLKEDAVSAAFKGLKSLEYLDLSFNQIARLPSGLPVSLLTLYLDNNKISNIPDEYFKRFNALQYLRLSHNELADSGIPGNSFNVSSLVELDLSYNKLKNIPTVNENLENYYLEVNQLEKFDIKSFCKILGPLSYSKIKHLRLDGNRISETSLPPDMYECLRVANEVTLN
notes: lumican, human, recombinant; also called hLumican
As to B1, the Kd stood at 0.0155 µM.

B2: recombinant human glypican‐1 (natural protein, UniProt P35052 24-530, looked up)
chain: DPASKSRSCGEVRQIYGAKGFSLSDVPQAEISGEHLRICPQGYTCCTSEMEENLANRSHAELETALRDSSRVLQAMLATQLRSFDDHFQHLLNDSERTLQATFPGAFGELYTQNARAFRDLYSELRLYYRGANLHLEETLAEFWARLLERLFKQLHPQLLLPDDYLDCLGKQAEALRPFGEAPRELRLRATRAFVAARSFVQGLGVASDVVRKVAQVPLGPECSRAVMKLVYCAHCLGVPGARPCPDYCRNVLKGCLANQADLDAEWRNLLDSMVLITDKFWGTSGVESVIGSVHTWLAEAINALQDNRDTLTAKVIQGCGNPKVNPQGPGPEEKRRRGKLAPRERPPSGTLEKLVSEAKAQLRDVQDFWISLPGTLCSEKMALSTASDDRCWNGMARGRYLPEVMGDGLANQINNPEVEVDITKPDMTIRQQIMQLKIMTNRLRSAYNGNDVDFQDASDDGSGSGSGDGCLDDLCSRKVSRKSSSSRTPLTHALPGLSEQEGQKTS
notes: glypican-1, human, recombinant; also called hGlypican‐1
On to B2, for which the Kd turned out to be 0.0156 µM.

B3: recombinant human integrin α6β4 (complex)
chain 1: FNLDTREDNVIRKYGDPGSLFGFSLAMHWQLQPEDKRLLLVGAPRAEALPLQRANRTGGLYSCDITARGPCTRIEFDNDADPTSESKEDQWMGVTVQSQGPGGKVVTCAHRYEKRQHVNTKQESRDIFGRCYVLSQNLRIEDDMDGGDWSFCDGRLRGHEKFGSCQQGVAATFTKDFHYIVFGAPGTYNWKGIVRVEQKNNTFFDMNIFEDGPYEVGGETEHDESLVPVPANSYLGLLFLTSVSYTDPDQFVYKTRPPREQPDTFPDVMMNSYLGFSLDSGKGIVSKDEITFVSGAPRANHSGAVVLLKRDMKSAHLLPEHIFDGEGLASSFGYDVAVVDLNKDGWQDIVIGAPQYFDRDGEVGGAVYVYMNQQGRWNNVKPIRLNGTKDSMFGIAVKNIGDINQDGYPDIAVGAPYDDLGKVFIYHGSANGINTKPTQVLKGISPYFGYSIAGNMDLDRNSYPDVAVGSLSDSVTIFRSRPVINIQKTITVTPNRIDLRQKTACGAPSGICLQVKSCFEYTANPAGYNPSISIVGTLEAEKERRKSGLSSRVQFRNQGSEPKYTQELTLKRQKQKVCMEETLWLQDNIRDKLRPIPITASVEIQEPSSRRRVNSLPEVLPILNSDEPKTAHIDVHFLKEGCGDDNVCNSNLKLEYKFCTREGNQDKFSYLPIQKGVPELVLKDQKDIALEITVTNSPSNPRNPTKDGDDAHEAKLIATFPDTLTYSAYRELRAFPEKQLSCVANQNGSQADCELGNPFKRNSNVTFYLVLSTTEVTFDTPDLDINLKLETTSNQDNLAPITAKAKVVIELLLSVSGVAKPSQVYFGGTVVGEQAMKSEDEVGSLIEYEFRVINLGKPLTNLGTATLNIQWPKEISNGKWLLYLVKVESKGLEKVTCEPQKEINSLNLTESHNSRKKREITEKQIDDNRKFSLFAERKYQTLNCSVNVNCVNIRCPLRGLDSKASLILRSRLWNSTFLEEYSKLNYLDILMRAFIDVTAAAENIRLPNAGTQVRVTVFPSKTVAQYS
chain 2: NRCKKAPVKSCTECVRVDKDCAYCTDEMFRDRRCNTQAELLAAGCQRESIVVMESSFQITEETQIDTTLRRSQMSPQGLRVRLRPGEERHFELEVFEPLESPVDLYILMDFSNSMSDDLDNLKKMGQNLARVLSQLTSDYTIGFGKFVDKVSVPQTDMRPEKLKEPWPNSDPPFSFKNVISLTEDVDEFRNKLQGERISGNLDAPEGGFDAILQTAVCTRDIGWRPDSTHLLVFSTESAFHYEADGANVLAGIMSRNDERCHLDTTGTYTQYRTQDYPSVPTLVRLLAKHNIIPIFAVTNYSYSYYEKLHTYFPVSSLGVLQEDSSNIVELLEEAFNRIRSNLDIRALDSPRGLRTEVTSKMFQKTRTGSFHIRRGEVGIYQVQLRALEHVDGTHVCQLPEDQKGNIHLKPSFSDGLKMDAGIICDVCTCELQKEVRSARCSFNGDFVCGQCVCSEGWSGQTCNCSTGSLSDIQPCLREGEDKPCSGRGECQCGHCVCYGEGRYEGQFCEYDNFQCPRTSGFLCNDRGRCSMGQCVCEPGWTGPSCDCPLSNATCIDSNGGICNGRGHCECGRCHCHQQSLYTDTICEINYSAIHPGLCEDLRSCVQCQAWGTGEKKGRTCEECNFKVKMVDELKRAEEVVVRCSFRDEDDDCTYSYTMEGDGAPGPNSTVLVHKKKDCPPGS
notes: integrin alpha-6, human, recombinant; integrin beta-4, human, recombinant; also called hIntegrin
B3: the Kd turned out to be 0.00096 µM.

B4: recombinant human vitronectin (natural protein, UniProt P04004 20-478, looked up)
chain: DQESCKGRCTEGFNVDKKCQCDELCSYYQSCCTDYTAECKPQVTRGDVFTMPEDEYTVYDDGEEKNNATVHEQVGGPSLTSDLQAQSKGNPEQTPVLKPEEEAPAPEVGASKPEGIDSRPETLHPGRPQPPAEEELCSGKPFDAFTDLKNGSLFAFRGQYCYELDEKAVRPGYPKLIRDVWGIEGPIDAAFTRINCQGKTYLFKGSQYWRFEDGVLDPDYPRNISDGFDGIPDNVDAALALPAHSYSGRERVYFFKGKQYWEYQFQHQPSQEECEGSSLSAVFEHFAMMQRDSWEDIFELLFWGRTSAGTRQPQFISRDWHGVPGQVDAAMAGRIYISGMAPRPSLAKKQRFRHRNRKGYRSQRGHSRGRNQNSRRPSRATWLSLFSSEESNLGANNYDDYRMDWLVPATCEPIQSVFFFSGDKYYRVNLRTRRVDTVDPPYPRSIAQYWLGCPAPGHL
notes: vitronectin, human, recombinant; also called hVitronectin
Regarding B4, the dissociation constant Kd is 0.00685 µM.

B5: fibronectin leucine‐rich transmembrane protein (FLRT1), recombinant human (natural protein, UniProt Q9NZU1 49-552, looked up)
chain: IDSTTCPSVCRCDNGFIYCNDRGLTSIPADIPDDATTLYLQNNQINNAGIPQDLKTKVNVQVIYLYENDLDEFPINLPRSLRELHLQDNNVRTIARDSLARIPLLEKLHLDDNSVSTVSIEEDAFADSKQLKLLFLSRNHLSSIPSGLPHTLEELRLDDNRISTIPLHAFKGLNSLRRLVLDGNLLANQRIADDTFSRLQNLTELSLVRNSLAAPPLNLPSAHLQKLYLQDNAISHIPYNTLAKMRELERLDLSNNNLTTLPRGLFDDLGNLAQLLLRNNPWFCGCNLMWLRDWVKARAAVVNVRGLMCQGPEKVRGMAIKDITSEMDECFETGPQGGVANAAAKTTASNHASATTPQGSLFTLKAKRPGLRLPDSNIDYPMATGDGAKTLAIHVKALTADSIRITWKATLPASSFRLSWLRLGHSPAVGSITETLVQGDKTEYLLTALEPKSTYIICMVTMETSNAYVADETPVCAKAETADSYGPTTTLNQEQNAGPMASLP
notes: FLRT1 (fibronectin leucine-rich transmembrane protein 1), human, recombinant; also called hFLRT‐1; FLTR1
Consider B5, for which the Kd amounted to 0.0155 µM.

Source of the values: publication PMC10086585, “From netrin‐1‐targeted SPECT/CT to internal radiotherapy for management of advanced solid tumors” (EMBO Molecular Medicine, 2023).
